Measurements published in patent US12528864 (GlaxoSmithKline, dated 2026).

Columns and labels:
recombinant human CD155 = molecular target: T1, recombinant human CD155 (human, UniProt P15151 21-343); assay: surface plasmon resonance (SPR)
T1 sequence: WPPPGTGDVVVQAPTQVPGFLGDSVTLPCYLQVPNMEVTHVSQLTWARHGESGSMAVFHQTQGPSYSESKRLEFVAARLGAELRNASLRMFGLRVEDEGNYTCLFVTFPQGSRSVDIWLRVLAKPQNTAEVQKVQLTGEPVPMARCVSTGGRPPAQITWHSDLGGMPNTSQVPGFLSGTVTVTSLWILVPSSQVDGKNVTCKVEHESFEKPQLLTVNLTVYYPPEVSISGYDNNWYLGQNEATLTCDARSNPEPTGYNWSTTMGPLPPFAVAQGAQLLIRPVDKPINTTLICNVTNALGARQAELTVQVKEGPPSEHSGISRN

recombinant human CD226 = molecular target: T2, recombinant human CD226 (human, UniProt Q15762 19-247, limits assumed); assay: surface plasmon resonance (SPR)
T2 sequence (looked up): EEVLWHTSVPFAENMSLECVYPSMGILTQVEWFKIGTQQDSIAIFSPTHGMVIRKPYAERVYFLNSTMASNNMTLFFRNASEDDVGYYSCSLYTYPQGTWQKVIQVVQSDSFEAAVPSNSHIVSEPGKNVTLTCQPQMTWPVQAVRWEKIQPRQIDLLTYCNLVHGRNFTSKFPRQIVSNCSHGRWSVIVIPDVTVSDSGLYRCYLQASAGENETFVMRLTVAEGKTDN

recombinant human TIGIT = molecular target: T3, recombinant human TIGIT (human, UniProt Q495A1 22-141); assay: surface plasmon resonance (SPR)
T3 sequence (looked up): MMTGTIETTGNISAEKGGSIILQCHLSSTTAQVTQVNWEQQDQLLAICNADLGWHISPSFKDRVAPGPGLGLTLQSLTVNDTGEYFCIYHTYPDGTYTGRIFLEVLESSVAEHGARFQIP

[1] = molecular target: T4, recombinant human nectin-1 (human, UniProt Q15223 31-334, limits assumed); assay: surface plasmon resonance (SPR)
T4 sequence (looked up): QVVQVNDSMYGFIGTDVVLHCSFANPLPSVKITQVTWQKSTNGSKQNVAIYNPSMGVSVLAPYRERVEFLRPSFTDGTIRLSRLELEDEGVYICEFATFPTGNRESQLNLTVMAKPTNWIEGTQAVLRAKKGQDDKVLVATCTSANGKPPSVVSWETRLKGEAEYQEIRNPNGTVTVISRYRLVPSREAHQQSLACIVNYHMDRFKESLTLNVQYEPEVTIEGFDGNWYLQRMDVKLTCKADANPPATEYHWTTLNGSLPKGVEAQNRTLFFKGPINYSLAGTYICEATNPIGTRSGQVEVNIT

[2] = molecular target: T5, human CD96v1 on transiently transfected HEK cells (human, UniProt P40200 22-585); assay: flow cytometry on transiently transfected HEK cells (Human CD96v1)
T5 construct: whole, on cells
T5 sequence (looked up): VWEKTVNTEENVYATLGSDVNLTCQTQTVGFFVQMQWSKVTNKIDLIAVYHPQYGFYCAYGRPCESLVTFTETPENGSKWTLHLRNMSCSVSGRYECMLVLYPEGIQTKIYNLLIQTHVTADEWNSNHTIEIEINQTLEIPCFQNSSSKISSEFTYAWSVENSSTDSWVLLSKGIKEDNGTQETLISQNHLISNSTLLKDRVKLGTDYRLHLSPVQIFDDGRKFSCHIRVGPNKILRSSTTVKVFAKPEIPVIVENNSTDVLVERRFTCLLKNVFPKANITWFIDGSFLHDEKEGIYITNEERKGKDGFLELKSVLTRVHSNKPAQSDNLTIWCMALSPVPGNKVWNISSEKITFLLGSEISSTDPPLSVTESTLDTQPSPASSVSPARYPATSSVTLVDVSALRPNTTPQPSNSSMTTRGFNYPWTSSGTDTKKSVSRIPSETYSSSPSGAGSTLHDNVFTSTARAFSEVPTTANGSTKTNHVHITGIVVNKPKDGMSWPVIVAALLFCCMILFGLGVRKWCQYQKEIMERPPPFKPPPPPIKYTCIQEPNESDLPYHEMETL

[3] = molecular target: T6, blood derived cynomolgus monkey CD96v2 on transiently transfected HEK cells (cynomolgus monkey); assay: flow cytometry on transiently transfected HEK cells (Cyno blood derived CD96v2)
T6 construct: also called Blood derived Cyno CD96v2

[4] = molecular target: T7, recombinant murine CD96v2 (mouse, UniProt Q3U0X8 22-536, limits assumed); assay: MSD-SET solution equilibrium titration, antibody titrated against constant CD96, free antigen detected
T7 construct: Soluble recombinant protein used in MSD-SET; also called mouse CD96
T7 sequence (looked up): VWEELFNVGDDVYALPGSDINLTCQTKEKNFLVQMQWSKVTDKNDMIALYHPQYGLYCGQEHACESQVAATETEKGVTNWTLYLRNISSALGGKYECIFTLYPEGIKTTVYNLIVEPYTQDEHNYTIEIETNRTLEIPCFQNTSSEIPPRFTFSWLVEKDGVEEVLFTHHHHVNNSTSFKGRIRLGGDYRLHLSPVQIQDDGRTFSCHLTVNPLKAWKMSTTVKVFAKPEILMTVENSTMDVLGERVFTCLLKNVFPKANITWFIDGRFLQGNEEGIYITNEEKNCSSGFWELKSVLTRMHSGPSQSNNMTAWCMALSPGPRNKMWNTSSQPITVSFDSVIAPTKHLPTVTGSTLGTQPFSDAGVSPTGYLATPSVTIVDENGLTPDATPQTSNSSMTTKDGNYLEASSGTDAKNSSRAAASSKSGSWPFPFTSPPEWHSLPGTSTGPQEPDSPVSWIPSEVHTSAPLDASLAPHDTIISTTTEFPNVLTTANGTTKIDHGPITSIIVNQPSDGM

B1: 42Y073-86F08-66 (antibody)
heavy: not shown
light: DIQLTQSPSSLSASVGDRVTITCRASQSISSYLNWYQQKPGKAPKLLIYAASSLQSGVPSRFSGSGSGTDFTLTISSLQPEDFATYYCQQVLHTITFGGGTKVEIKRTVAAPSVFIFPPSDEQLKSGTASVVCLLNNFYPREAKVQWKVDNALQSGNSQESVTEQDSKDSTYSLSSTLTLSKADYEKHKVYACEVTHQGLSSPVTKSFNRGEC
notes: also called GSK 6097608; GSK6097608
Q: Does B1 bind (recombinant human CD155)?
A: Result: no binding

Q: Does B1 bind (recombinant human CD226)?
A: Result: no binding

Q: Does B1 bind (recombinant human TIGIT)?
A: Result: no binding

Q: Does B1 bind [1]?
A: Result: no binding

Q: And the “EC50 (read off the curve)” value [2]?
A: Its value is ~6 nM.

Q: And the “EC50 (read off the curve)” value [3]?
A: The value was ~5 nM.

Q: And the “IC50 (read off the curve)” value [4]?
A: The value was ~0.5 nM.
